Assay in all cases: MST; His-tagged DHS variants labelled with RED-tris-NTA 2nd Generation, 8.32 nM; eIF5A titrated, sixteen dilutions 0.00175–57.5 μM; 50 mM Tris, 200 mM NaCl, 5 mM β-ME pH 8; Monolith NT.115, 40% excitation power, 60% MST power; no NAD or SPD
What all share (details): both partners purified

The target of test [1] is T1, deoxyhypusine synthase S240A, His-tagged (human, UniProt P49366 1-369, S240A, RED-tris-NTA 2nd Generation dye on the His tag).
T1 construct: human deoxyhypusine synthase, Uniprot P49366, residues 1-369, site-directed mutant of the pET24d full-length construct; also called DHS S240A; source: E. coli, purified; not shown: 6xHis, N-terminal, kept
T1 sequence (looked up): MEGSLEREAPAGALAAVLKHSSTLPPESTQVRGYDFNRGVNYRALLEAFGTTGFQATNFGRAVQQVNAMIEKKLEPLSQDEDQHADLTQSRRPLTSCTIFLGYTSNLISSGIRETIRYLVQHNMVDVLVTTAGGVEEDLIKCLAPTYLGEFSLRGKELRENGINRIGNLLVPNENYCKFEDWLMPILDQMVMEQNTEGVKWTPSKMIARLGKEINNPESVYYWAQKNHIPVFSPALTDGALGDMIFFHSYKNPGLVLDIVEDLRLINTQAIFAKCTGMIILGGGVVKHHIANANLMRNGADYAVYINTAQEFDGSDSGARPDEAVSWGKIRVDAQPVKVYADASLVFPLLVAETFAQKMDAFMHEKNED

Test [2] concerns the target T2, deoxyhypusine synthase Q83A, His-tagged (human, UniProt P49366 1-369, Q83A, RED-tris-NTA 2nd Generation dye on the His tag).
T2 construct: human deoxyhypusine synthase, Uniprot P49366, residues 1-369, site-directed mutant of the pET24d full-length construct; also called DHS Q83A; source: E. coli, purified; not shown: 6xHis, N-terminal, kept
T2 sequence (looked up): T1 sequence (looked up) with Q83A, A240S

In test [3] the target is T3, deoxyhypusine synthase N173A, His-tagged (human, UniProt P49366 1-369, N173A, RED-tris-NTA 2nd Generation dye on the His tag).
T3 construct: human deoxyhypusine synthase, Uniprot P49366, residues 1-369, site-directed mutant of the pET24d full-length construct; also called DHS N173A; source: E. coli, purified; not shown: 6xHis, N-terminal, kept
T3 sequence (looked up): T1 sequence (looked up) with N173A, A240S

In test [4] the target is T4, deoxyhypusine synthase L295A, His-tagged (human, UniProt P49366 1-369, L295A, RED-tris-NTA 2nd Generation dye on the His tag).
T4 construct: human deoxyhypusine synthase, Uniprot P49366, residues 1-369, site-directed mutant of the pET24d full-length construct; also called DHS L295A; source: E. coli, purified; not shown: 6xHis, N-terminal, kept
T4 sequence (looked up): T1 sequence (looked up) with A240S, L295A

Where a chain is given by its changes, count along the chain named.

B1: eukaryotic translation factor 5A (eIF5A-1), residues 15-151 (domain or fragment)
chain: not shown
notes: human eIF5A1, residues 15-151, from pET28-MHL (Addgene); The purification protocol removes the tag with TEV; source: E. coli, purified (HisTrap, TEV cleavage, reverse HisTrap, SEC); not shown: His tag, N-terminal, cleaved
A word on the Kd: it is the free concentration of one partner at which half of the binding sites on the other are occupied at equilibrium, for simple one-to-one binding. Higher therefore signals lower affinity. Regarding B1, the Kd in test [1] was 2660 ± 434 nM; in test [2], > 5000 nM; in test [3], > 5000 nM; in test [4], 393 ± 107 nM.

Values taken from publication PMC10042821, “Cryo-EM structure of human eIF5A-DHS complex reveals the molecular basis of hypusination-associated neurodegenerative disorders” (Nature Communications, 2023).
